In PMC9731694, “SRSF5‐Mediated Alternative Splicing of M Gene is Essential for Influenza A Virus Replication: A Host‐Directed Target Against Influenza Virus” (Advanced Science, 2022):

Molecular target: T1, GST-U1A-His (human (amplified from A549 cells), UniProt P09012 1-282)
T1 construct: also called GST tagged U1A-His
Experiment: pull-down; GST pulldown: 300 ng purified SRSF5-Flag with 150 ng glutathione-bound GST-tagged protein, 300 µL, 1 h at 4 °C; 50 mM Tris pH 7.5, 200 mM NaCl, 10% glycerol, 0.5% Triton-X-100, RNaseA; blot with anti-Flag or anti-His
Conditions: both partners purified

T1 sequence (P09012 whole entry): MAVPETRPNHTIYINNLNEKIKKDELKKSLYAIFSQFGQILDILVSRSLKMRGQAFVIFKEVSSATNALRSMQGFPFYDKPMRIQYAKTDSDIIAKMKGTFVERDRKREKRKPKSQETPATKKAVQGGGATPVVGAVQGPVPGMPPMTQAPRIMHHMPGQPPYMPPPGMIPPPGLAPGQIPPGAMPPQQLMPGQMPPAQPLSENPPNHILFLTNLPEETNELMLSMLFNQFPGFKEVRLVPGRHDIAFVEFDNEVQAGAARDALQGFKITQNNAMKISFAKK

B1: purified recombinant SRSF5-Flag (natural protein, human, UniProt Q13243 1-272, looked up)
chain: MSGCRVFIGRLNPAAREKDVERFFKGYGRIRDIDLKRGFGFVEFEDPRDADDAVYELDGKELCSERVTIEHARARSRGGRGRGRYSDRFSSRRPRNDRRNAPPVRTENRLIVENLSSRVSWQDLKDFMRQAGEVTFADAHRPKLNEGVVEFASYGDLKNAIEKLSGKEINGRKIKLIEGSKRHSRSRSRSRSRTRSSSRSRSRSRSRSRKSYSRSRSRSRSRSRSKSRSVSRSPVPEKSQKRGSSSRSKSPASVDRQRSRSRSRSRSVDSGN
notes: also called hSRSF5-Flag; Flag-SRSF5
**Q.** Does B1 bind?
**A.** binds
